Data on 6 sequences can be found in the supplement of paper PMC12455559.

Data set [1] in a line: PET hydrolysis, aromatic products released after 48 h (umol product/mg enzyme); higher = more PET depolymerization activity. As to the method:
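HTP-purified, SUMO-cleaved, tagless PET hydrolase candidates (5 ug, 1.43 mg/g PET) were incubated 48 h without shaking with 3.5 mg amorphous PET film (aFilm) or crystalline PET powder (cryPow) in 0.5 mL buffer: NaCitrate pH 4.5/5.5, NaPhosphate pH 6.5/7.5, glycine pH 8.5. Incubation was at 40 or 60 C. Aromatic products (TPA, MHET, BHET) in the supernatant were quantified by UV absorbance at 260/280 nm relative to buffer blanks and expressed per mg enzyme. LCC-ICCG was the positive control on every plate.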

Data set [2] is described as follows: purified protein yield per well (BCA); higher = higher soluble expression. The gist of the method:
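Values under 25 ug (0.1 mg/mL) are below the detection threshold. Purified protein yield per well was quantified with the Pierce Rapid Gold BCA kit after candidate enzymes, expressed in E. coli C41(DE3), were captured on Ni-charged magnetic beads and released by SUMO protease on an OT-2 robot. Cultures were 2 mL autoinduction with 100 µg/mL kanamycin, run 2 h at 37 °C and then 40 h at 18 °C.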

Data set [3] in a line: melting temperature (DSF); higher = more thermostable. Here is the method: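 Candidate PET hydrolases were expressed in E. coli C41(DE3) in 2 mL autoinduction cultures in 24-deep-well plates, Ni-bead purified and released by SUMO protease cleavage on an OT-2 robot. Yield per well was measured by BCA; values below 25 ug (0.1 mg/mL) are below the detection threshold. Melting temperature was measured by differential scanning fluorimetry with Sypro Orange, ramping from 25 C at 0.3 C/step.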

Where [4] appears, read: substrate: cryPow, 40 °C, pH 4.5.
Where [5] appears, read: substrate: cryPow, 40 °C, pH 5.5.
Setting [6] is: substrate: cryPow, 40 °C, pH 6.5.
Where [7] appears, read: substrate: cryPow, 40 °C, pH 7.5.
Where [8] appears, read: substrate: cryPow, 60 °C, pH 4.5.
Where [9] appears, read: substrate: cryPow, 60 °C, pH 5.5.
Setting [10] is: substrate: cryPow, 60 °C, pH 6.5.
The mark [11] stands for this setting: substrate: cryPow, 60 °C, pH 7.5.
Where [12] appears, read: substrate: aFilm, 40 °C, pH 4.5.
[13] abbreviates: substrate: aFilm, 40 °C, pH 5.5.
Where [14] appears, read: substrate: aFilm, 40 °C, pH 6.5.
The mark [15] stands for this setting: substrate: aFilm, 40 °C, pH 7.5.
[16] abbreviates: substrate: aFilm, 60 °C, pH 4.5.
[17] abbreviates: substrate: aFilm, 60 °C, pH 5.5.
[18] abbreviates: substrate: aFilm, 60 °C, pH 6.5.
Setting [19] is: substrate: aFilm, 60 °C, pH 7.5.

± gives the standard deviation of the averaged measurements.

On to “AAAAGRADQRGPDPSVAGVAATYGPFATAQLTVPAGNGFNGGYIYYPTDTSLGTWGAVAIVPGYSALFANEEAWMGPRLASFGFVVIGIETTTRTDGADARATQLLAALDYLTQRSPVRDRVDPGRLAVMGHSAGGAGALLAAMRRPSLRAVVGLAPGSPTGLSSLSTDVVPTLFVGGQQDPTVTPSYLDNLYATLPASTQSAYVQLGGADHLFFTRANDVEIRRLVPWLKLFLDGDTRYTQFMCPTTPDTTGVSRYSAKCPLVPPGGPTGSASPSSPGASNSPSSPPASSSAPGAACVATYRTVGQWSGGFQGEVTVTAGGRPVNGWTVRWALGSGQAVSQLWNGALSTSGSAVSVRNVSYNGALAASASTTFGFLGSGTPSTPALSCTSP [ESM041]”, for which the PET hydrolysis in data set [1] (setting [4]), in data set [1] (setting [5]), in data set [1] (setting [6]) and in data set [1] (setting [7]) was under 3 throughout. In addition, in data set [2], the “purified protein yield per well” value was 106 µg. This sequence had a melting temperature in data set [3] of 47.8 C.
Turning to “AADNPYQRGPDPTPASVSANRGTFATTQVAVAAGNGFGGGVIYYPTDTSQGQFGAIAVVPGYTATWAAEGAWMGHWLASFGFVVIGIDTNNRNDWDTARGTQLLAALDYLTQRSSVRDRVDATRTAVMGHSMGGGGAASASLQRPSLKASIGLAPASFSQNLTTTRVPTMLLSGQNDTTITPASVVNLYNGIPASVEKAYLELSGAGHGFPTSNNSTMMRNVIPWFKVFVDSDTRYTQFLCPLANWSGIRTYQSTCPLVPSTPPTSTTTSTTTSTTTSTTTTTTPQPVGACNATYRTTNSWPGGYQGEVTVTAGESGVNGWTTRWTLGSGQTVTQVWNGTLTVDGSTASVRNAAYNGSLPAGGSAAFGFIGGGTPPTSLTCTSP [ESM023]”, the PET hydrolysis was under 3 in data set [1] (setting [4]); under 3 in data set [1] (setting [5]); under 3 in data set [1] (setting [6]); 5 in data set [1] (setting [7]); under 3 in data set [1] (setting [8]); under 3 in data set [1] (setting [9]). The PET hydrolysis in data set [1] (setting [10]) and in data set [1] (setting [11]) was under 3 throughout. For the same sequence, in data set [2], the “purified protein yield per well” value came to 221 µg. This sequence also registered a melting temperature in data set [3] of 55 C.
Turning to “AAGYERGPNPTSSALEATRGPFSVASTNVSSLSASGFGGGTIYYPTDTSQGTFGGVVIAPGYTASKSSMAWLAERLASHGFVVFNIDTITRSDQPDSRGRQILAAADHLAEESSSTVRRRLDASRIGVMGHSMGGGGTLAAADSRPSLKAAVPLTPWHLDKSWGNVRVPTMIIGAENDTIAAVGSHSEPFYNSLSAAPEKAYLELNGASHFAPNSDNDTIAKYGISWMKRFVDEDTRYDQFLCPAPGRSTTIEEYRSSCPHS [DP086]”, the PET hydrolysis in data set [1] (setting [5]) is under 3; in data set [1] (setting [6]), under 3; in data set [1] (setting [7]) it was under 3; in data set [1] (substrate: cryPow, 40 °C, pH 8.5) it was under 3; in data set [1] (setting [9]) it was under 3; in data set [1] (setting [10]) it was under 3. Further, the PET hydrolysis was under 3 in data set [1] (setting [11]) and under 3 in data set [1] (substrate: cryPow, 60 °C, pH 8.5). Moreover, the “purified protein yield per well” value in data set [2] was determined as 90 µg. Besides, the melting temperature in data set [3] turned out to be 39.1 C.
Regarding “AANPYERGPAPTAASIAATTGPFAVASVSVPRGNGFGGGVIYYPTSTSQGTFGGVAISPGLNGTWAGIAWLGPRLASQGFVIFGIETNNLNDSPASRGTQLLAALDFLTRSSSVRTRVDASRLAVAGHSMGGGGALSAALQRPSLQAAIGNAPHLPSGSLATDRVPTLIYAMQNDTLVTPSRLTSLYNSMPATTERAYIEVAGAGHNYIGQPSTTLARTMIPWLKIFVDNDARYSQFLCPLSNQSGISQYRNSCPLISTTTLSTGVDSTSGLAVR [ESM157]”, the PET hydrolysis in data set [1] (setting [12]), in data set [1] (setting [13]), in data set [1] (setting [14]), in data set [1] (setting [15]), in data set [1] (setting [16]) and in data set [1] (setting [17]) was under 3 throughout. Further, the PET hydrolysis in data set [1] (setting [18]) was under 3; in data set [1] (setting [19]), under 3; in data set [1] (setting [4]), under 3; in data set [1] (setting [5]), 17.5 ± 2.1; in data set [1] (setting [6]), 50; in data set [1] (setting [7]) it was 69.5 ± 3.5. The PET hydrolysis in data set [1] (setting [8]) was under 3; in data set [1] (setting [9]), 3; in data set [1] (setting [10]), 7.5 ± 0.71; in data set [1] (setting [11]) it was 14.5 ± 0.71. The “purified protein yield per well” value in data set [2] worked out at 313 µg. The sequence also gave a melting temperature in data set [3] of 61 C.
“AANPYERGPAPTDAVLEASRGPFATTSYSVSGLSVTGFGGGVVYYPTSTSEGTFGAIAISPGYTATWSSLSWLGPRIASHGFVVIGIETNTLLDQPDSRGRQLLAALDYLVQRSSVRGRIDAGRLAVAGHSMGGGGTLEAAAARPSLQAAVPLAPWNLDKTWSGVTVPTLIVGGESDSVAPVASHSVPFYNSIPASSEKAYLELNGASHFFPQSVNTPTAKQMVAWLKRFVDNDTRYEQFLCPGPSGLAIEEYRNTCPSS [TEP018]”: the PET hydrolysis in data set [1] (setting [4]), in data set [1] (setting [5]), in data set [1] (setting [6]), in data set [1] (setting [7]), in data set [1] (setting [8]) and in data set [1] (setting [9]) was under 3 throughout. For the same sequence, the PET hydrolysis in data set [1] (setting [10]) and in data set [1] (setting [11]) was under 3 each time. Moreover, the “purified protein yield per well” value in data set [2] worked out at 65.6 µg. The melting temperature in data set [3] is 40.6 C.
As for “AANPYERGPDPTDAILEAARGPFETSRTEVPALSVTGFGGGTIYYPATTSAGTFGGVAVAPGYTADRTSLAWLAERLASHGFVVFNIDTLTRLDQPDSRGRQLLAALDYLTQRSSVRGRLDAGRLGVMGHSMGGGGTLEAARDRPSLQAAVPLTPWDLTKIWSGVRVPTMIVGAEADTIAPVASHAEPFYQSLPSSPGKAYLELNNATHFAPNVPDTTIGKYVVAWMKRFVDDDTRYTRFLCPGPSGGLTVEEYRSTCPFS [TEP194]”, the PET hydrolysis in data set [1] (setting [12]), in data set [1] (setting [13]), in data set [1] (setting [14]), in data set [1] (setting [15]), in data set [1] (setting [16]) and in data set [1] (setting [17]) was under 3 in each case. Besides, the PET hydrolysis in data set [1] (setting [18]) was 2 ± 2.8; in data set [1] (setting [19]) it was under 3; in data set [1] (setting [4]), 5; in data set [1] (setting [5]), 8.5 ± 0.71; in data set [1] (setting [6]), 7; in data set [1] (setting [7]) it was 1.5 ± 2.1. For the same sequence, the PET hydrolysis in data set [1] (setting [8]) is 3.5 ± 0.71; in data set [1] (setting [9]), 7; in data set [1] (setting [10]), 3.5 ± 0.71; in data set [1] (setting [11]), under 3. For the same sequence, the “purified protein yield per well” value in data set [2] was found to be 325 µg. This sequence gave a melting temperature in data set [3] of 50.8 C.
